Sequences and labels used below:
B1: control antibody G00 (MCARH109) as scFv-hFc IgG1 format antibody (Fc fusion)
chain: QSALTQPASVSGSPGQSITISCTGTSSDVGGYNYVSWYQQHPGKAPKLMIYDVSKRPSGVSNRFSGSKSGNTASLTISGLQAEDEADYYCSSYTRSSTEVFGGGTKLTVLGSRGGGGSGGGGSGGGGSLEMAEVQLVQSGAEVKKPGASVKVSCKASGYTFTSYYMHWVRQAPGQGLEWMGIINPSGGSTSYAQKFQGRVTMTRDTSTSTVYMELSSLRSEDTAVYYCARGGSKKWSGEKWRRENFDYWGQGTLVTVSS
notes: also called GOO; G00 scFv-hFc; not shown: human IgG1 Fc (hFc) of the scFv-hFc vector
B2: G05 humanized IgG1-type antibody (native structure) (antibody, V domains shown)
VH: EVQLVESGGGLVQPGGSLRLSCAASGFSLTDNGITWVRQAPGKGLEWIGIMTTGGSTYYAGWAKGRFTISRDNSKNTLYLQMNSLRAEDTATYFCTRGYGIHGLWGPGTLVTVSS
VL: DIQMTQSPSSLSASVGDRVTITCQASESISKFLSWYQQKPGKVPKLLIYRASTLASGVPSRFSGSGSGTDFTLTISSLQPEDVATYYCQGYDGSSTTTNYESAFGQGTKLTVL
notes: also called G05-mAb
B3: G09 humanized IgG1-type antibody (native structure) (antibody, V domains shown)
VH: B2 VH with T30S, D31N, M51I, G54T, T57A, T92V, F94Y, T96A
VL: B2 VL with K31N, F32Y, S95A, T96S, T97S, T98S
notes: also called G09-mAb
B4: G07 humanized IgG1-type antibody (native structure) (antibody, V domains shown)
VH: B2 VH with S56T, T92V, F94Y, T96A
VL: B2 VL with I29V
notes: also called G07-mAb
B5: G02 humanized IgG1-type antibody (native structure) (antibody, V domains shown)
VH: EVQLVESGGGLVQPGGSLRLSCTASGFSLSSNAMSWVRQAPGKGLEWIGSIGRSGSTYNANWAKGRFTISRDNSKNTVYLQMNSLRAEDTAVYFCAKFTGGVSGGYFSVWGPGTLVTVSS
VL: DIQMTQSPSTLSASVGDRVIINCQASQSVYNNNLLSWYQQKPGKAPKLLIYAASNLASGVPSRFSGSGSGAEFTLTISSLQPDDFATYYCQGYYGGAICAFGQGTKLTVL
B6: G05 scFv-hFc humanized IgG1 format antibody (Fc fusion)
chain: DIQMTQSPSSLSASVGDRVTITCQASESISKFLSWYQQKPGKVPKLLIYRASTLASGVPSRFSGSGSGTDFTLTISSLQPEDVATYYCQGYDGSSTTTNYESAFGQGTKLTVLGGGGSGGGGSGGGGSEVQLVESGGGLVQPGGSLRLSCAASGFSLTDNGITWVRQAPGKGLEWIGIMTTGGSTYYAGWAKGRFTISRDNSKNTLYLQMNSLRAEDTATYFCTRGYGIHGLWGPGTLVTVSS
notes: not shown: human IgG1 Fc (hFc) of the scFv-hFc vector
B7: G07 scFv-hFc humanized IgG1 format antibody (Fc fusion)
chain: B6 chain with I29V, S184T, T220V, F222Y, T224A
notes: as for B6
B8: G09 scFv-hFc humanized IgG1 format antibody (Fc fusion)
chain: DIQMTQSPSSLSASVGDRVTITCQASESISNYLSWYQQKPGKVPKLLIYRASTLASGVPSRFSGSGSGTDFTLTISSLQPEDVATYYCQGYDGSASSSNYESAFGQGTKLTVLGGGGSGGGGSGGGGSEVQLVESGGGLVQPGGSLRLSCAASGFSLSNNGITWVRQAPGKGLEWIGIITTTGSAYYAGWAKGRFTISRDNSKNTLYLQMNSLRAEDTAVYYCARGYGIHGLWGPGTLVTVSS
notes: as for B6
B9: G02 scFv-hFc humanized IgG1 format antibody (Fc fusion)
chain: DIQMTQSPSTLSASVGDRVIINCQASQSVYNNNLLSWYQQKPGKAPKLLIYAASNLASGVPSRFSGSGSGAEFTLTISSLQPDDFATYYCQGYYGGAICAFGQGTKLTVLGGGGSGGGGSGGGGSEVQLVESGGGLVQPGGSLRLSCTASGFSLSSNAMSWVRQAPGKGLEWIGSIGRSGSTYNANWAKGRFTISRDNSKNTVYLQMNSLRAEDTAVYFCAKFTGGVSGGYFSVWGPGTLVTVSS
notes: as for B6
B10: G05 BsAb (GPRC5D&CD3 bispecific antibody) (bispecific antibody)
chain: DIQMTQSPSSLSASVGDRVTITCQASESISKFLSWYQQKPGKVPKLLIYRASTLASGVPSRFSGSGSGTDFTLTISSLQPEDVATYYCQGYDGSSTTTNYESAFGQGTKLTVLGGGGSGGGGSGGGGSEVQLVESGGGLVQPGGSLRLSCAASGFSLTDNGITWVRQAPGKGLEWIGIMTTGGSTYYAGWAKGRFTISRDNSKNTLYLQMNSLRAEDTATYFCTRGYGIHGLWGPGTLVTVSSDKTHTCPPCPAPELLGGPSVFLFPPKPKDTLMISRTPEVTCVVVDVSHEDPEVKFNWYVDGVEVHNAKTKPREEQYNSTYRVVSVLTVLHQDWLNGKEYKCKVSNKALPAPIEKTISKAKGQPREPQVCTLPPSREEMTKNQVSLSCAVKGFYPSDIAVEWESNGQPENNYKTTPPVLDSDGSFFLVSKLTVDKSRWQQGNVFSCSVMHEALHNHYTQKSLSLSPGK
heavy: not shown
light: QAVVTQEPSLTVSPGGTVTLTCGSSTGAVTTSNYANWVQEKPGQAFRGLIGGTNKRAPGTPARFSGSLLGGKAALTLSGAQPEDEAEYYCALWYSNLWVFGGGTKLTVL
notes: not shown: human kappa constant region of vector pTT5-hKappa
B11: G09 BsAb (GPRC5D&CD3 bispecific antibody) (bispecific antibody)
chain: DIQMTQSPSSLSASVGDRVTITCQASESISNYLSWYQQKPGKVPKLLIYRASTLASGVPSRFSGSGSGTDFTLTISSLQPEDVATYYCQGYDGSASSSNYESAFGQGTKLTVLGGGGSGGGGSGGGGSEVQLVESGGGLVQPGGSLRLSCAASGFSLSNNGITWVRQAPGKGLEWIGIITTTGSAYYAGWAKGRFTISRDNSKNTLYLQMNSLRAEDTAVYYCARGYGIHGLWGPGTLVTVSSDKTHTCPPCPAPELLGGPSVFLFPPKPKDTLMISRTPEVTCVVVDVSHEDPEVKFNWYVDGVEVHNAKTKPREEQYNSTYRVVSVLTVLHQDWLNGKEYKCKVSNKALPAPIEKTISKAKGQPREPQVCTLPPSREEMTKNQVSLSCAVKGFYPSDIAVEWESNGQPENNYKTTPPVLDSDGSFFLVSKLTVDKSRWQQGNVFSCSVMHEALHNHYTQKSLSLSPGK
heavy: not shown
light: B10 light
notes: as for B10
B12: G00 BsAb (GPRC5D&CD3 bispecific antibody with the control scFv G00) (bispecific antibody)
chain: QSALTQPASVSGSPGQSITISCTGTSSDVGGYNYVSWYQQHPGKAPKLMIYDVSKRPSGVSNRFSGSKSGNTASLTISGLQAEDEADYYCSSYTRSSTEVFGGGTKLTVLGSRGGGGSGGGGSGGGGSLEMAEVQLVQSGAEVKKPGASVKVSCKASGYTFTSYYMHWVRQAPGQGLEWMGIINPSGGSTSYAQKFQGRVTMTRDTSTSTVYMELSSLRSEDTAVYYCARGGSKKWSGEKWRRENFDYWGQGTLVTVSSDKTHTCPPCPAPELLGGPSVFLFPPKPKDTLMISRTPEVTCVVVDVSHEDPEVKFNWYVDGVEVHNAKTKPREEQYNSTYRVVSVLTVLHQDWLNGKEYKCKVSNKALPAPIEKTISKAKGQPREPQVCTLPPSREEMTKNQVSLSCAVKGFYPSDIAVEWESNGQPENNYKTTPPVLDSDGSFFLVSKLTVDKSRWQQGNVFSCSVMHEALHNHYTQKSLSLSPGK
heavy: not shown
light: B10 light
notes: also called GOO; not shown: human kappa constant region of vector pTT5-hKappa
B13: G07 BsAb (GPRC5D&CD3 bispecific antibody) (bispecific antibody)
chain: B10 chain with I29V, S184T, T220V, F222Y, T224A
heavy: not shown
light: B10 light
notes: as for B10

Changes are numbered by the printed parent chain.

One assay deals with T1, human GPRC5D (human, UniProt Q9NZD1 1-345).
T1 construct: whole, on cells; Target always presented on cells (K562-GPRC5D, RPMI 8226, MM.1S, NCI-H929); also called GPRC5D protein
T1 sequence (Q9NZD1 whole entry): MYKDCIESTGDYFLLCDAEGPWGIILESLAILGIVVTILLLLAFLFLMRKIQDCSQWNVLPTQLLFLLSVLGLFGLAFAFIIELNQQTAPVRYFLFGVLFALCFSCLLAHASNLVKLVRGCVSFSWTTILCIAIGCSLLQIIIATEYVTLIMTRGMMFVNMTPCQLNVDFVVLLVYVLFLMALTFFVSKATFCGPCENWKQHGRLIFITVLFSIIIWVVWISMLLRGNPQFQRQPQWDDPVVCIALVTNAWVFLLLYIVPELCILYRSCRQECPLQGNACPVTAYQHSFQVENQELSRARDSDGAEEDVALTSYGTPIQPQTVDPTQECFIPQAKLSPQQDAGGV
The assay can be described thus: flow cytometry, scFv-hFc titrated on K562-GPRC5D and RPMI 8226 cells; G00 told only as the weaker comparator. (In general: In flow cytometry, cells or beads pass a laser one at a time.)
Consider B1, for which the binding result is “binds”.

For another assay, the target named is T1, human GPRC5D. Nature of the assay: flow cytometry, IgG1 antibody titrated on K562-GPRC5D cells.
As for B2, the binding result was “binds”.

On to B3, for which the binding result is listed as “binds”.

For the molecule B4, the binding result is listed as “binds”.

For B5, the binding result is listed as “binds”.

Another assay has as its target T1, human GPRC5D. Nature of the assay: flow cytometry, scFv-hFc at 20 ug/ml on MM.1S and NCI-H929 cells.
With B6, the binding result is recorded as “binds”.

Consider B7, for which the binding result is reported as “binds”.

For B8, the binding result was “binds”.

Regarding B9, the binding result is listed as “binds”.

A further assay concerns the target T1, human GPRC5D. Nature of the assay: flow cytometry, bispecific antibody titrated on NCI-H929 cells, APC anti-human IgG. How it is done: NCI-H929 and Jurkat cells were cultured for 48 hours, counted, and plated at a density of 2×10⁵ cells in 96-well V-bottom plates. The bispecific antibodies were serially diluted in PBS, with Talquetamab used as a positive control. The starting concentration was 100 μg/ml, followed by 1:5, 1:2, 1:2, 1:2, 1:2, 1:2, 1:2, 1:2 serial dilutions, resulting in […] for testing. 100 μl of proteins was added to each well with 200,000 cells. The BsAb was incubated with cells at 4° C. for 1 hour, washed three times with PBS and 0.2% FBS, and then APC-conjugated anti-human IgG mAb was added to each well. The cells were incubated with the secondary antibody for 1 hour at 4° C., washed three times again with PBS and 0.2% FBS, and then analyzed using flow cytometry.
For B10, the binding result was “binds”.

In the case of B11, the binding result is recorded as “binds”.

For B12, the binding result was “binds”.

In the case of B13, the binding result was “binds”.

Values taken from patent US20260028398A1 (SUZHOU DIMA BIOTECHNOLOGY, published 2026).
